Data published in the supplement of paper PMC12338614.
± gives the uncertainty stated by the source.

B1: library; numbered along this chain (parent)
chain: MEVVDPQQLGMFTEGELMSVGMDTFIHRIDSTEVIYQPRRKRAKLIGKYLMGDLLGEGSYGKVKEVLDSETLCRRAVKILKKKKLRRIPNGEANVKKEIQLLRRLRHKNVIQLVDVLYNEEKQKMYMVMEYCVCGMQEMLDSVPEKRFPVCQAHGYFCQLIDGLEYLHSQGIVHKDIKPGNLLLTTGGTLKISDLGVAEALHPFAADDTCRTSQGSPAFQPPEIANGLDTFSGFKVDIWSAGVTLYNITTGLYPFEGDNIYKLFENIGKGSYAIPGDCGPPLSDLLKGMLEYEPAKRFSIRQIRQHSWFRKKHPPAEAPVPIPPSPDTKDRWRSMTVVPYLEDLHGADEDEDLFDIEDDIIYTQDFTVPGQVPEEEASHNGQRRGLPKAVCMNGTEAAQLSTKSRAEGRAPNPARKACSASSKIRRLSACKQQ

Variants of: B1
Experiment: STK11 functional score (HeLa growth suppression), rescaled enrichment; synonymous median = 1, nonsense median = 0 (normalised score)
Settings: with HeLa; variant type: missense
Method in brief: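 In HeLa, Bxb1 integrated POPCode codon-randomised libraries of codon-optimised STK11 at an AAVS1 landing pad; three regions were each transfected three times. Integrants, marked as BFP-negative and mCherry-positive, were FACS-sorted 4–5 days after electroporation and expanded for about two weeks before tiled gDNA amplicons were sequenced on NextSeq (~2 million reads per tile). Each functional score is a post/pre-selection log ratio corrected to wild type, rescaled to the synonymous and nonsense medians, and merged across codons and replicate transfections, with error estimated by bootstrapping.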

| Variant | STK11 functional score |
| --- | --- |
| T209W | 1.28 ± 0.47 |
| T209I | 0.703 ± 0.26 |
| T209H | 1.34 ± 0.18 |
| T209E | 1.17 ± 0.18 |
| T209N | 1.51 ± 0.17 |
| T209C | 1.12 ± 0.13 |
| T209Q | 1.5 ± 0.5 |
| T209S | 0.82 ± 0.11 |
| T209A | 1.2 ± 0.51 |
| T209P | 1.27 ± 0.3 |
| T209L | 1 ± 0.21 |
| T209M | 1.43 ± 0.33 |
| T209R | 1.27 ± 0.2 |
| T209G | 1.36 ± 0.13 |
| T209F | 0.568 ± 0.088 |
| T209V | 1.42 ± 0.31 |
| L201V | 0.808 ± 0.096 |
| L201M | 0.914 ± 0.17 |
| L201W | 0.55 ± 0.12 |
| L201E | 0.334 ± 0.27 |
| L201D | 0.769 ± 0.11 |
| L201K | 1.64 ± 0.14 |
| L201N | 1.19 ± 0.12 |
| L201I | 1.48 ± 0.3 |

| Variant | STK11 functional score |
| --- | --- |
| L201G | 0.745 ± 0.38 |
| L201R | 0.929 ± 0.2 |
| L201P | 1.36 ± 0.18 |
| L201A | 1.59 ± 0.23 |
| L201F | 0.797 ± 0.33 |
| L201H | 1.16 ± 0.3 |
| L201S | 0.759 ± 0.098 |
| L201C | 1.12 ± 0.33 |
| L201T | 1.2 ± 0.26 |
| G187S | 1.67 ± 0.44 |
| G187P | 1.49 ± 0.12 |
| G187T | 1.59 ± 0.4 |
| G187R | 0.864 ± 0.65 |
| G187V | 0.795 ± 0.26 |
| G187L | 1.27 ± 0.2 |
| G187I | 1.62 ± 0.17 |
| G187A | 1.09 ± 0.18 |
| G187W | 1.65 ± 0.13 |
| H202I | 1.31 ± 0.21 |
| H202D | 0.804 ± 0.38 |
| H202A | 1.17 ± 0.49 |
| H202W | 0.389 ± 0.18 |
| H202T | 0.925 ± 0.22 |
| H202S | 1.17 ± 0.25 |

| Variant | STK11 functional score |
| --- | --- |
| H202E | 1.47 ± 0.23 |
| H202N | 0.176 ± 0.17 |
| H202L | 0.766 ± 0.12 |
| H202R | 0.161 ± 0.26 |
| H202M | 1.19 ± 0.31 |
| H202V | 1.27 ± 0.26 |
| H202F | 0.754 ± 0.15 |
| H202P | 0.806 ± 0.12 |
| H202G | 1.3 ± 0.16 |
| T186L | 1.54 ± 0.17 |
| T186F | 1.33 ± 0.17 |
| T186H | 0.54 ± 0.59 |
| T186C | 1.19 ± 0.2 |
| T186W | 0.861 ± 0.12 |
| T186M | 0.369 ± 0.12 |
| T186R | 1.11 ± 0.36 |
| T186A | 1.16 ± 0.25 |
| T186N | 0.218 ± 0.11 |
| T186Y | 1.14 ± 0.14 |
| T186V | 1.24 ± 0.38 |
| T186P | 1.52 ± 0.33 |
| T186S | 1.1 ± 0.12 |
| F204C | 0.849 ± 0.29 |
| F204A | 1.03 ± 0.52 |

| Variant | STK11 functional score |
| --- | --- |
| F204G | 1.3 ± 0.17 |
| F204V | 1.24 ± 0.23 |
| F204L | 1.17 ± 0.4 |
| F204Y | 0.593 ± 0.2 |
| F204I | 1.23 ± 0.25 |
| F204D | 1.09 ± 0.12 |
| F204W | 1.3 ± 0.13 |
| F204H | 1.67 ± 0.41 |
| F204R | 0.931 ± 0.16 |
| E199P | 0.87 ± 0.76 |
| E199S | 1.21 ± 0.18 |
| E199R | 1.67 ± 0.31 |
| E199C | 1.38 ± 0.23 |
| E199Q | 0.887 ± 0.61 |
| E199A | 1.44 ± 0.23 |
| E199I | 0.977 ± 0.097 |
| E199L | 0.971 ± 0.12 |
| E199Y | 1.04 ± 0.34 |
| E199F | 1.37 ± 0.25 |
| E199N | 1.54 ± 0.19 |
| E199V | 1.49 ± 0.23 |
| E199W | 0.303 ± 0.12 |
| E199K | 1.2 ± 0.76 |
| E199H | 1.39 ± 0.18 |

| Variant | STK11 functional score |
| --- | --- |
| E199G | 1.07 ± 0.44 |
| V197W | 1.25 ± 0.19 |
| V197G | 0.372 ± 0.21 |
| V197S | 1.58 ± 0.4 |
| V197C | 1.55 ± 0.22 |
| V197L | 1.05 ± 0.21 |
| V197R | 1 ± 0.12 |
| V197A | 1.26 ± 0.69 |
| V197M | -0.102 ± 0.17 |
| A206D | 1.07 ± 0.12 |
| A206R | 1.64 ± 0.13 |
| A206G | 1.14 ± 0.26 |
| A206L | 1.03 ± 0.21 |
| A206S | 1.17 ± 0.093 |
| A206V | 0.497 ± 0.082 |
| A206E | 0.305 ± 0.46 |
| A206I | 1.46 ± 0.47 |
| A206F | 0.495 ± 0.22 |
| A206T | 0.479 ± 0.13 |
| A206Q | 1.07 ± 0.092 |
| A206P | 1.24 ± 0.15 |
| A206N | 1.66 ± 0.2 |
| A206W | 0.035 ± 0.16 |
| A200F | 0.455 ± 0.11 |

| Variant | STK11 functional score |
| --- | --- |
| A200V | 0.901 ± 0.23 |
| A200T | 1.02 ± 0.82 |
| A200I | 1.31 ± 0.23 |
| A200M | 1.65 ± 0.14 |
| A200L | 0.6 ± 0.26 |
| A200D | 0.859 ± 0.28 |
| A200G | 0.439 ± 0.33 |
| A200Y | 1.29 ± 0.38 |
| A200S | 0.652 ± 0.15 |
| A200P | 1.35 ± 0.56 |
| A200C | 1.13 ± 0.096 |
| A200W | 0.861 ± 0.091 |
| A200R | 0.878 ± 0.12 |
| A200H | 1.49 ± 0.32 |
| C210L | 0.435 ± 0.12 |
| C210A | 1.33 ± 0.73 |
| C210D | 1.37 ± 0.26 |
| C210E | 0.0554 ± 0.2 |
| C210S | 0.964 ± 0.59 |
| C210K | 1.3 ± 0.49 |
| C210I | 1.12 ± 0.19 |
| C210T | 1.35 ± 0.19 |
| C210F | 1.04 ± 0.12 |
| C210W | 0.601 ± 0.2 |

| Variant | STK11 functional score |
| --- | --- |
| C210H | 1.42 ± 0.24 |
| C210V | 1 ± 0.26 |
| C210M | 0.956 ± 0.14 |
| C210P | 1.18 ± 0.4 |
| C210G | 1.03 ± 0.12 |
| L184W | 0.145 ± 0.09 |
| A198I | -0.192 ± 0.12 |
| A198G | 1.28 ± 0.11 |
| A198R | 0.174 ± 0.098 |
| A198N | 0.745 ± 0.5 |
| A198Y | 1.04 ± 0.51 |
| A198T | 1.23 ± 0.13 |
| A198W | 1.16 ± 0.18 |
| A198H | 1.54 ± 0.13 |
| A198L | 1.13 ± 0.32 |
| A198F | 0.731 ± 0.25 |
| A198S | 0.503 ± 0.23 |
| A198P | 0.974 ± 0.23 |
| A198V | 1.38 ± 0.19 |
| G188I | 1.04 ± 0.29 |
| G188S | 1.05 ± 0.37 |
| G188V | 0.388 ± 0.11 |
| G188R | 1.19 ± 0.56 |
